Where no end group is shown, it is not given here.
Legend:
[1] = target: T1, Soluble Sortilin (sSortilin), luminal domain of human Sortilin fused C-terminally to His6 (human, UniProt Q99523 78-755); assay: SPR (BIAcore 3000), sSortilin immobilised on CM5 chip
T1 construct: Expressed in CHO-K1 cells; The propeptide is removed in the mature receptor; also called wt sSortilin; wtSortilin
T1 sequence: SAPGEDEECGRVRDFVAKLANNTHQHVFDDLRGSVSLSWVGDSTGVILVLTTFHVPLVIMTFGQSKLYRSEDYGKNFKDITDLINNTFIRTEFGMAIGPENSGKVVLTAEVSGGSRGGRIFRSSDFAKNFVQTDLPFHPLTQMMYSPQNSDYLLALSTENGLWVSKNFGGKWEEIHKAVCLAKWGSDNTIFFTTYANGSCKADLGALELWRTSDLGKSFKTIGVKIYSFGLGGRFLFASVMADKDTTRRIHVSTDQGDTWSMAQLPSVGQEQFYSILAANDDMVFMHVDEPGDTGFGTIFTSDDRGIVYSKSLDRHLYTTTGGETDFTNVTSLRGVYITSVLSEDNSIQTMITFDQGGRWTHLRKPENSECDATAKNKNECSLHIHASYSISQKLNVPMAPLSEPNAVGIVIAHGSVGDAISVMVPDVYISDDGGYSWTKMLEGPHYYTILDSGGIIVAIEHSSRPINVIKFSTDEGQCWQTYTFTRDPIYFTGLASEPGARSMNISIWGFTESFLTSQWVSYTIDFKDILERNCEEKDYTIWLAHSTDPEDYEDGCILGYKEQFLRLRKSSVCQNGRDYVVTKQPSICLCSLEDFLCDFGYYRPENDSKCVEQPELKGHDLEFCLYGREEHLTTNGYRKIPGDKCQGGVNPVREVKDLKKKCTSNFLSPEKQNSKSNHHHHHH
Protocol: All measurements were performed on a BIAcore 3000 instrument (Biacore Sweden) maintained at 20° C. A continuous flow of buffer F (10 mM HEPES pH=7.4, 150 mM (NH₄)₂SO₄, 1.5 mM CaCl₂, 1.5 mM EGTA and 0.005% Tween-20) was passed over the CM5 chip sensor surface at 5 μl/min.

[2] = target: T1, Soluble Sortilin (sSortilin), luminal …; assay: SPR, wt sSortilin immobilised
Protocol: (§1) The receptors were immobilized at similar concentrations (0.06 pM/mm²) and binding was analyzed by SPR.
(§2) Surface plasmon resonance (SPR) measurements were performed on a BIAcore 2000 instrument (Biacore Sweden) equipped with CM5 sensor chips maintained at 20° C. A continuous flow of HBS buffer (10 mM HEPES pH 7.4, 3.4 mM EDTA, 150 mM NaCl, 0.005% surfactant P20) passing over the sensor surface was maintained at 5 μl/min. The carboxylated dextran matrix of the sensor chip flow cells 1-3 was activated by the injection of a solution containing 0.2 M N-ethyl-N-(3 dimethylamino-propyl)carbodiimide and 0.05MN-hydroxysuccimide in water. A sortilin solution (320 μl, 5 μg/ml in 10 mM sodium acetate pH 4.0) was then injected over flow cells 1 and 2 at a flow rate of 15 μl/min. Remaining binding sites in all three flow cells were blocked by injection (5 μl/min) of 70 μl of 1 M ethanolamine pH 8.5. […] Screening of the samples was performed by injecting aliquots of 50 μl, at concentrations of 0.1-8 μM, through all flow cells with a flow rate of 5 μl/min. Unless otherwise stated, the samples were dissolved in 10 mM HEPES pH 7.4, 150 mM NaCl, 1.5 mM CaCl2, 1 mM EGTA, 0.005% surfactant P20. Sample buffer was also used as running buffer. […]

[3] = target: T2, sSortilin S316E mutant (human, UniProt Q99523 78-755); assay: SPR, mutant sSortilin immobilised
T2 sequence: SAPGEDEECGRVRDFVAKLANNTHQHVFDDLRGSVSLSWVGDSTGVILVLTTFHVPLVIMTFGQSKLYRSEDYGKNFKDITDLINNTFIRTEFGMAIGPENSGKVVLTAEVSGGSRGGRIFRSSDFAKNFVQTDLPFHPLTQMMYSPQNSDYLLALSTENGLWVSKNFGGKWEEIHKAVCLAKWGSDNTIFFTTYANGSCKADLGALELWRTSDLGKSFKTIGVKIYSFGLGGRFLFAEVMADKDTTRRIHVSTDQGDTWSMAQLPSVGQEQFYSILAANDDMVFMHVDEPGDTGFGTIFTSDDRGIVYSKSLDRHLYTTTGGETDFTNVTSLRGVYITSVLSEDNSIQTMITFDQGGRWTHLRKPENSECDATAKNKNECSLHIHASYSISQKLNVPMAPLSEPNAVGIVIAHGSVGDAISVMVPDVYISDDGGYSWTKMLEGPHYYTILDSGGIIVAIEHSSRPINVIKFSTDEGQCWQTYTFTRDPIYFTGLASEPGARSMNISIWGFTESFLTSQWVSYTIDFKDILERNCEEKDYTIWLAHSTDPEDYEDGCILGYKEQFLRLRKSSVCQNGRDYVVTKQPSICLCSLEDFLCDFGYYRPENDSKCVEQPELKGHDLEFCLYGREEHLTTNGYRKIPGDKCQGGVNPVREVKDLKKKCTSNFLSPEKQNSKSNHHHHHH
Protocol: as §1, §2

B1: Propeptide of Nerve Growth Factor (NGFpro), E. coli-expressed, His6 tag removed by TEV (ligand)
chain: EPHSESNVPAGHTIPQVHWTKLQHSLDTALRRARSAPAAAIAARVAGQTRNITVDPRLFKKRRLRSPRVLFSTQPPREAADTQDLDFEVGGAAPFNRTHRSKR
notes: also called pro-domain of Nerve Growth Factor; NGF prodomain
Kd [1]: ~10 nM

B2: Mature BDNF (ligand)
chain: HSDPARRGELSVCDSISEWVTAADKKTAVDMSGGTVTVLEKVPVSKGQLKQYFYETKCNPMGYTKEGCRGIDKRHWNSQCRTTQSYVRALTMDSKKRIGWRFIRIDTSCVCTLTIKRGR
binding result [2]: binds | binding result [3]: binds

B3: GST-tagged Sortilin propeptide (other)
chain: QDRLDAPPPPAAPLPRWSGPIGVSWGLRAAAAGGAFPRGGRWRR
modifications: also: GST tag, order and linker not given here
notes: also called GST-Sort-pro; (GST)Sort-pro; not shown: glutathione S-transferase (GST) tag
binding result [3]: no binding

— patent publication US20110160439A1 (H LUNDBECK A S, published 2011)
